In paper PMC10939263:

Experiments:
[1] = target: C1-fused SRC kinases; assay: split reporter (BiFC, NanoBiT); Gaussia princeps luciferase complementation assay in human HEK293T cells; Gluc2 at the N terminus of SKAP1 or SKAP2 (N2), Gluc1 at the N terminus (N1) or C terminus (C1) of the SRC kinase; 100 ng plasmid pair, PEI; luminescence read in lysate one day later; normalized luminescence ratio (NLR), given relative to wild type or to SKAP2
[2] = target: BLK, C1-fused (UniProt P51451); assay: luciferase complementation assay (normalized luciferase ratio, NLR); details: HEK293T cells; one experiment; read off a plot
[3] = target: BLK, N1-fused (UniProt P51451); assay: as above; details: HEK293T cells; one experiment; read off a plot
[4] = target: FGR, C1-fused (UniProt P09769); assay: as above; details: HEK293T cells; one experiment; read off a plot
[5] = target: FRK, C1-fused (UniProt P42685); assay: as above; details: HEK293T cells; one experiment; read off a plot
[6] = target: FYN (isoform without exon 7), C1-fused, P06241-3; assay: as above; details: HEK293T cells; one experiment; read off a plot
[7] = target: FYN (isoform without exon 7), N1-fused, P06241-3; assay: as above; details: HEK293T cells; one experiment; read off a plot
[8] = target: HCK wild type, C1-fused, P08631-2; assay: as above; details: HEK293T cells; one experiment; read off a plot
[9] = target: LCK wild type, C1-fused (UniProt P06239); assay: as above; details: HEK293T cells; one experiment; read off a plot
[10] = target: LYN, C1-fused (UniProt P07948); assay: as above; details: HEK293T cells; one experiment; read off a plot
[11] = target: LYN, N1-fused (UniProt P07948); assay: as above; details: HEK293T cells; one experiment; read off a plot

SKAP2 normalized NLR, mean over C1-fused SRC kinases (against wild type SKAP2) [1]	ratio to parent [2]	ratio to parent [3]	ratio to parent [4]	ratio to parent [5]	ratio to parent [6]	ratio to parent [7]	ratio to parent [8]	ratio to parent [9]	ratio to parent [10]	ratio to parent [11]	Substance
0.39											SRC kinase associated phosphoprotein 1 (SKAP1), wild type, N2-fused (from UniProt Q86WV1 1-359) (natural protein)
	0.9	0.7	1.3	0.64	0.78	0.66	1.3	0.68	1.2	0.93	SRC kinase associated phosphoprotein 1 (SKAP1), wild type, N2-fused (from UniProt Q86WV1) DIM-
